According to WO2012008397A1 (dated 2012):

Target: T1, His-Fibronectin type III domain (426-540) (human, UniProt P29317 426-540)
T1 construct: also called His-Fibrinctin type III domain (426-540); Fibronectin type III domain of EPHA2; not shown: histidine tag added to the amino terminus
Test: SPR (Biacore T100), antibody captured on anti-human IgG(Fc), antigen as analyte, 1:1 model

T1 sequence (P29317 426-540): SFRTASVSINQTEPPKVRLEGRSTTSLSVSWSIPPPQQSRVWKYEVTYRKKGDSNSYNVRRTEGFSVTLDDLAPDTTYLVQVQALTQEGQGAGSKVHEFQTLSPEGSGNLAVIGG

Kd [nM]	Binder
0.37	348-H4-357-L4 (antibody, human IgG1, kappa, V domains shown, human IgG1 / kappa; also called antibody of humanized heavy chain of SH348-1 and humanized light chain of SH357-1; swapped antibody) VH: QVQLVQSGAEVKKPGASVKVSCKASGYTFTHYSMHWVRQAPGQGLEWMGWINTYTGEPTYADDFKGRFVFSLDTSVSTAYLQLSSLKAEDTAVYYCATYYRYERDFDYWGQGTLVTVSS VL: DIVMTQSPLSLPVTPGEPASISCRSSQSIVHSSGITYLEWYLQKPGQSPQLLIYKVSNRFSGVPDRFSGSGSGTDFTLKISRVEAEDVGVYYCFQGSHVPYTFGQGTKVEIKR
0.37	348-H4-357-L5 (antibody, human IgG1, kappa, V domains shown, human IgG1 / kappa) VH: QVQLVQSGAEVKKPGASVKVSCKASGYTFTHYSMHWVRQAPGQGLEWMGWINTYTGEPTYADDFKGRFVFSLDTSVSTAYLQLSSLKAEDTAVYYCATYYRYERDFDYWGQGTLVTVSS VL: DVLMTQSPLSLPVTPGEPASISCRSSQSIVHSSGITYLEWYLQKPGQSPKLLIYKVSNRFSGVPDRFSGSGSGTDFTLKISRVEAEDVGVYYCFQGSHVPYTFGQGTKVEIKR
0.3	348-H5-357-L5 (antibody, human IgG1, kappa, V domains shown, human IgG1 / kappa) VH: QVQLVQSGAEVKKPGASVKVSCKASGYTFTHYSMHWVKQAPGQGLKWMGWINTYTGEPTYADDFKGRFAFSLETSVSTAYLQLSSLKAEDTAVYFCATYYRYERDFDYWGQGTLVTVSS VL: DVLMTQSPLSLPVTPGEPASISCRSSQSIVHSSGITYLEWYLQKPGQSPKLLIYKVSNRFSGVPDRFSGSGSGTDFTLKISRVEAEDVGVYYCFQGSHVPYTFGQGTKVEIKR
0.32	348-H5-357-L4 (antibody, human IgG1, kappa, V domains shown, human IgG1 / kappa) VH: QVQLVQSGAEVKKPGASVKVSCKASGYTFTHYSMHWVKQAPGQGLKWMGWINTYTGEPTYADDFKGRFAFSLETSVSTAYLQLSSLKAEDTAVYFCATYYRYERDFDYWGQGTLVTVSS VL: DIVMTQSPLSLPVTPGEPASISCRSSQSIVHSSGITYLEWYLQKPGQSPQLLIYKVSNRFSGVPDRFSGSGSGTDFTLKISRVEAEDVGVYYCFQGSHVPYTFGQGTKVEIKR
